The target of assay [1] is T1, human MSLN-hFc protein (Acro, Cat. No. MSN-H5253) (human, UniProt Q13421 296-580).
T1 construct: the method names the coated protein as human MSLN-hFc (Acro); also called human MSLN full-length protein
Nature of the assay: ELISA on coated antigen, antibody 1 nM. On the technique in general: An ELISA detects its analyte on a solid surface through an enzyme-linked reagent.

Assay [2] addresses T2, human MSLN-R3 protein (human, UniProt Q13421 487-598).
T2 construct: also called hMSLN-R3
Kind of assay: ELISA on coated antigen, antibody 1 nM.

Assay [3] concerns the target T1, human MSLN-hFc protein (Acro, Cat. No. …). Nature of the assay: ELISA on coated antigen, antibody 10 nM.
Assay [4] deals with T2, human MSLN-R3 protein. Nature of the assay: ELISA on coated antigen, antibody 10 nM.
For assay [5], the target named is T1, human MSLN-hFc protein (Acro, Cat. No. …). Nature of the assay: ELISA on coated antigen, antibody 0.1 nM.
Assay [6] shares this target. Nature of the assay: ELISA on coated antigen, antibody 100 nM.
Assay [7] has as its target T2, human MSLN-R3 protein. Kind of assay: ELISA on coated antigen, antibody 0.1 nM.
Assay [8] has as its target T2, human MSLN-R3 protein. Kind of assay: ELISA on coated antigen, antibody 100 nM.
Assay [9] has as its target T1, human MSLN-hFc protein (Acro, Cat. No. …). Kind of assay: ELISA on coated antigen, antibody 0.01 nM.
Assay [10] has as its target T2, human MSLN-R3 protein. Kind of assay: ELISA on coated antigen, antibody 0.01 nM.
Assay [11] deals with T1, human MSLN-hFc protein (Acro, Cat. No. …). Kind of assay: ELISA on coated antigen, antibody 0.001 nM.
Assay [12] deals with T2, human MSLN-R3 protein. Nature of the assay: ELISA on coated antigen, antibody 0.001 nM.
The target of assay [13] is T1, human MSLN-hFc protein (Acro, Cat. No. …). Nature of the assay: ELISA on coated antigen, antibody 0.0001 nM.
In assay [14] the target is T2, human MSLN-R3 protein. Kind of assay: ELISA on coated antigen, antibody 0.0001 nM.

T1 sequence (Q13421 other isoform, or with tags, fused parts or gaps limits assumed): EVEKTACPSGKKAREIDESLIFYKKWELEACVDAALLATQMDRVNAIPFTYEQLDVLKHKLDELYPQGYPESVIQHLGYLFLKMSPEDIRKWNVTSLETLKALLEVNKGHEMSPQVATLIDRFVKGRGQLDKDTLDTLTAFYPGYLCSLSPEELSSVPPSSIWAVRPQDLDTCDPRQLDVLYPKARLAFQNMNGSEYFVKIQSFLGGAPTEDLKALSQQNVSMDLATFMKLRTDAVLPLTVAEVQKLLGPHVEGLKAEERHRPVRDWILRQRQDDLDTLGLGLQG
T2 sequence (Q13421 495-606, form in doubt): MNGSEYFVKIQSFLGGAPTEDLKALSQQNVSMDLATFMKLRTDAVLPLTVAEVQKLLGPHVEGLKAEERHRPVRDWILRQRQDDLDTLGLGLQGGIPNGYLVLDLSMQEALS

B1: F7.44.20-H13 (scFv, not shown: small tags and cut ends)
scFv: EVQLVQSGAEVKKPGASVKVSCKASGYTFTDYNMDWVRQAPGQGLEWMGDINPSTGGTIYNQKFSGRVTMTEDKSASTVYMELSSLRSEDTAVYYCARRRIGTGYFDVWGQGTTVTVSSGGGGSGGGGSGGGGSEIVLTQSPDFQSVTPKEKVTITCSASSSVISSYLSWYQQKPDQSPKLLIYRTSNLASGVPSRFSGSGSGTDFTLTINSLEAEDAATYYCHQWSSFPYTFGGGTKVEIK
notes: also called S009-F7.44.20 humanized antibody VH2a + VL1
B1: the OD450 in [1] was 0.98 OD450; with human MSLN-R3 protein [2], 0.45 OD450; in assay [3], 2.81 OD450; with human MSLN-R3 protein [4], 1.57 OD450; in [5] it was 0.16 OD450; in assay [6], 3.12 OD450. The OD450 stood at 0.08 OD450 with human MSLN-R3 protein [7]; 1.94 OD450 with human MSLN-R3 protein [8]; 0.06 OD450 in assay [9]; 0.05 OD450 in the assay with human MSLN-R3 protein [10]; 0.06 OD450 in [11]; 0.05 OD450 in the assay with human MSLN-R3 protein [12]. Besides, the OD450 in assay [13] stood at 0.06 OD450; with human MSLN-R3 protein [14], 0.05 OD450.

B2: F7.44.20-H14 (scFv, not shown: small tags and cut ends)
scFv: EVQLVQSGAEVKKPGASVKVSCKASGYTFTDYNMDWVRQAPGQGLEWMGDINPSTGGTIYNQKFSGRVTMTEDKSASTVYMELSSLRSEDTAVYYCARRRIGTGYFDVWGQGTTVTVSSGGGGSGGGGSGGGGSEIVLTQSPDFQSVTPKEKVTITCSASSSVISSYLSWYQQKPDQSPKLLIYRTSNLASGVPSRFSGSGSGTDYTLTINSLEAEDAATYYCHQWSSFPYTFGGGTKVEIK
notes: also called S009-F7.44.20 humanized antibody VH2a + VL2
As for B2, the OD450 in [1] came out at 1.2 OD450; with human MSLN-R3 protein [2], 0.66 OD450; in assay [3] it was 2.89 OD450; in the assay with human MSLN-R3 protein [4], 1.69 OD450; in assay [5] it was 0.19 OD450; in [6] it was 3.13 OD450. Moreover, the OD450 with human MSLN-R3 protein [7] worked out at 0.1 OD450; in the assay with human MSLN-R3 protein [8] it was 1.9 OD450; in assay [9], 0.07 OD450; in the assay with human MSLN-R3 protein [10] it was 0.04 OD450; in assay [11], 0.05 OD450; in the assay with human MSLN-R3 protein [12] it was 0.04 OD450. In addition, the figures for the OD450 (in assay [13]; with human MSLN-R3 protein [14]) were 0.05 OD450 and 0.04 OD450, respectively.

B3: F7.44.20-H3 (scFv, not shown: small tags and cut ends)
scFv: EVQLVQSGAEVKKPGASVKVSCKASGYTFTDYNMDWVRQAPGQGLEWMGDINPSTGGTIYNQKFNGRVTMTEDKSTSTVYMELSSLRSEDTAVYYCARRRIGTGYFDVWGQGTTVTVSSGGGGSGGGGSGGGGSEIVLTQSPATLSLSPGERATLSCSASSSVISSYLSWYQQKPGQSPRLLIYRTSNLASGIPARFSGSGSGTDYTLTISSLEPEDFAVYYCHQWSSFPYTFGGGTKVEIK
notes: also called S009-F7.44.20 humanized antibody VH1 + VL3
B3: the OD450 in assay [1] is 1.22 OD450; in the assay with human MSLN-R3 protein [2], 0.83 OD450; in assay [3] it was 2.74 OD450; with human MSLN-R3 protein [4], 2.12 OD450; in [5], 0.15 OD450; in [6] it was 2.96 OD450. For the same molecule, the OD450 with human MSLN-R3 protein [7] worked out at 0.1 OD450; with human MSLN-R3 protein [8], 2.21 OD450; in assay [9] it was 0.06 OD450; with human MSLN-R3 protein [10] it was 0.04 OD450; in assay [11], 0.04 OD450; in the assay with human MSLN-R3 protein [12], 0.04 OD450. Moreover, the OD450 came to 0.04 OD450 in [13] and 0.05 OD450 with human MSLN-R3 protein [14].

B4: F7.44.20-H7 (scFv, not shown: small tags and cut ends)
scFv: EVQLVQSGAEVKKPGASVKVSCKASGYTFTDYNMDWVRQAPGQGLEWMGDINPSTGGTIYNQKFQGRVTMTEDKSTSTVYMELSSLRSEDTAVYYCARRRIGTGYFDVWGQGTTVTVSSGGGGSGGGGSGGGGSEIVLTQSPATLSLSPGERATLSCSASSSVISSYLSWYQQKPGQSPRLLIYRTSNLASGIPARFSGSGSGTDYTLTISSLEPEDFAVYYCHQWSSFPYTFGGGTKVEIK
notes: also called S009-F7.44.20 humanized antibody VH1a + VL3
Turning to B4, the OD450 in [1] is 1.74 OD450; with human MSLN-R3 protein [2], 1.18 OD450; in [3], 2.99 OD450; with human MSLN-R3 protein [4], 2.23 OD450; in assay [5], 0.3 OD450; in [6], 3.05 OD450. Also, the OD450 was determined as 0.16 OD450 in the assay with human MSLN-R3 protein [7]; 2.1 OD450 in the assay with human MSLN-R3 protein [8]; 0.06 OD450 in assay [9]; 0.05 OD450 with human MSLN-R3 protein [10]; 0.04 OD450 in assay [11]; 0.04 OD450 with human MSLN-R3 protein [12]. Further, the OD450 in assay [13] is 0.04 OD450; with human MSLN-R3 protein [14], 0.05 OD450.

B5: F7.44.20-H4 (scFv, not shown: small tags and cut ends)
scFv: EVQLVQSGAEVKKPGASVKVSCKASGYTFTDYNMDWVRQAPGQGLEWMGDINPSTGGTIYNQKFNGRVTMTEDKSTSTVYMELSSLRSEDTAVYYCARRRIGTGYFDVWGQGTTVTVSSGGGGSGGGGSGGGGSEIVLTQSPATLSLSPGERATLSCSASSSVISSYLSWYQQKPGSSPRLLIYRTSNLASGIPARFSGSGSGTDYTLTISSLEPEDFAVYYCHQWSSFPYTFGGGTKVEIK
notes: also called S009-F7.44.20 humanized antibody VH1 + VL4
With B5, the OD450 was 1.14 OD450 in assay [1]; 0.74 OD450 with human MSLN-R3 protein [2]; 2.99 OD450 in assay [3]; 2.11 OD450 with human MSLN-R3 protein [4]; 0.19 OD450 in assay [5]; 3.2 OD450 in assay [6]. In addition, the OD450 in the assay with human MSLN-R3 protein [7] turned out to be 0.1 OD450; with human MSLN-R3 protein [8] it was 2.32 OD450; in [9], 0.06 OD450; with human MSLN-R3 protein [10] it was 0.04 OD450; in assay [11], 0.04 OD450; in the assay with human MSLN-R3 protein [12], 0.04 OD450. Further, the OD450 (in [13]; in the assay with human MSLN-R3 protein [14]) was 0.05 OD450 throughout.

B6: F7.44.20-H11 (scFv, not shown: small tags and cut ends)
scFv: EVQLVQSGAEVKKPGASVKVSCKASGYTFTDYNMDWVRQAPGQGLEWMGDINPSTGGTIYNQKFNGRVTMTEDKSASTVYMELSSLRSEDTAVYYCARRRIGTGYFDVWGQGTTVTVSSGGGGSGGGGSGGGGSEIVLTQSPATLSLSPGERATLSCSASSSVISSYLSWYQQKPGQSPRLLIYRTSNLASGIPARFSGSGSGTDYTLTISSLEPEDFAVYYCHQWSSFPYTFGGGTKVEIK
notes: also called S009-F7.44.20 humanized antibody VH2 + VL3
Regarding B6, the OD450 in assay [1] came to 1.69 OD450; with human MSLN-R3 protein [2], 1.1 OD450; in assay [3], 2.91 OD450; with human MSLN-R3 protein [4], 2.41 OD450; in [5], 0.27 OD450; in assay [6], 3.28 OD450. The OD450 in the assay with human MSLN-R3 protein [7] turned out to be 0.16 OD450; with human MSLN-R3 protein [8], 2.43 OD450; in [9], 0.06 OD450; in the assay with human MSLN-R3 protein [10], 0.05 OD450; in assay [11], 0.05 OD450; with human MSLN-R3 protein [12], 0.04 OD450. Moreover, the OD450 (in assay [13]; in the assay with human MSLN-R3 protein [14]) was 0.05 OD450 each time.

B7: F7.44.20-H8 (scFv, not shown: small tags and cut ends)
scFv: EVQLVQSGAEVKKPGASVKVSCKASGYTFTDYNMDWVRQAPGQGLEWMGDINPSTGGTIYNQKFQGRVTMTEDKSTSTVYMELSSLRSEDTAVYYCARRRIGTGYFDVWGQGTTVTVSSGGGGSGGGGSGGGGSEIVLTQSPATLSLSPGERATLSCSASSSVISSYLSWYQQKPGSSPRLLIYRTSNLASGIPARFSGSGSGTDYTLTISSLEPEDFAVYYCHQWSSFPYTFGGGTKVEIK
notes: also called S009-F7.44.20 humanized antibody VH1a + VL4
On to B7, for which the OD450 in assay [1] stood at 1.13 OD450; with human MSLN-R3 protein [2], 0.76 OD450; in assay [3] it was 2.55 OD450; with human MSLN-R3 protein [4], 2.07 OD450; in [5], 0.15 OD450; in assay [6], 3.09 OD450. Moreover, the OD450 with human MSLN-R3 protein [7] amounted to 0.09 OD450; with human MSLN-R3 protein [8], 2.15 OD450; in assay [9], 0.05 OD450; with human MSLN-R3 protein [10], 0.04 OD450; in [11] it was 0.04 OD450; with human MSLN-R3 protein [12], 0.04 OD450. The OD450 (in assay [13]; with human MSLN-R3 protein [14]) was 0.05 OD450 throughout.

The record behind these values is US20250250357A1 (NANJING ZAIMING PHARMACEUTICAL, published 2025).
